This note sets out measurements from US20070049521A1 (ENOBIA PHARMA, published 2007).

For test [1], the target named is T1, human NPR-C (natriuretic peptide receptor C, clearance receptor), overexpressed on HEK293 cells (human, UniProt P17342 27-541).
T1 sequence (looked up): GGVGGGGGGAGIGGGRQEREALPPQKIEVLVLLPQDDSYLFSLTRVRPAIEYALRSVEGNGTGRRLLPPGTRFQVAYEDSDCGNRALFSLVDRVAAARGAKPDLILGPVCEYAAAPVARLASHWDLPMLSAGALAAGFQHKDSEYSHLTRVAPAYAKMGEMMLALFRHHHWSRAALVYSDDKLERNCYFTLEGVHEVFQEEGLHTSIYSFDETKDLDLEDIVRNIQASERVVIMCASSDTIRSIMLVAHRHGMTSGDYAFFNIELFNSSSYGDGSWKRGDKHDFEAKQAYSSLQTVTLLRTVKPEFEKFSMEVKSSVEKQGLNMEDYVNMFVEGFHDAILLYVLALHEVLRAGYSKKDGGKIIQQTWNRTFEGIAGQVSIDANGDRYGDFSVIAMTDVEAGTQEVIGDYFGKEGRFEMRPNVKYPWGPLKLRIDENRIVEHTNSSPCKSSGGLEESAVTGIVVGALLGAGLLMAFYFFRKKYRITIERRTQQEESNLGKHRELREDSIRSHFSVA
As to the kind of experiment: cell-based or functional assay.

The target of test [2] is T1, human NPR-C (natriuretic peptide …). Kind of test: competition of ~30 nM PLAP-Ostn binding on NPR-C-transfected HEK293 cells. How it is done:
To further validate the specificity and affinity of Ostn-NPR-C binding, competition experiments were conducted in NPR-C over-expressing cells. […] (SEQ ID NO: 71) lacking a part of NM2. […] (SEQ ID NO: 66) or Ostn[117-130] (SEQ ID NO: 71). […] (SEQ ID NO: 66) was able to compete off 50% of the binding of PLAP-mOstn in the ˜1-10 nM range, in contrast to Ostn[117-130] (SEQ ID NO: 71) that was unable to efficiently compete up to 100 nM (FIG. 7B).

Test [3] has as its target T2, NPR-C on ATDC5 cells (mouse chondrogenic cell line) (mouse, UniProt P70180 41-536).
T2 construct: whole, on cells; also called ATDC5 cells surface
T2 sequence (looked up): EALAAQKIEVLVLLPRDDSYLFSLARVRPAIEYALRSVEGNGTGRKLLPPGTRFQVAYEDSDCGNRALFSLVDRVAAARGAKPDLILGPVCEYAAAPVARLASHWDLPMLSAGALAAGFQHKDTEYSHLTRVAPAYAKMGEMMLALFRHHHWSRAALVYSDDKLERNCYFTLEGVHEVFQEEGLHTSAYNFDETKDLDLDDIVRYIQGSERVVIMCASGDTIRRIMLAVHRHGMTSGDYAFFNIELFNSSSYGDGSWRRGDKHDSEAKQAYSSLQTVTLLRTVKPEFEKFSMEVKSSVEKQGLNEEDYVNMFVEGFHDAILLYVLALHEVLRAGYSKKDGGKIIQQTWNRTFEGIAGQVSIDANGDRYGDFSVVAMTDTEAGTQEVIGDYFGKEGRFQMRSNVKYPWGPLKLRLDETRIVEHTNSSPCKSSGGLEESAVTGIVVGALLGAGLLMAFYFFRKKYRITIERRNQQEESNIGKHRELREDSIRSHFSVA
As to the kind of experiment: displacement of 125I-Ostn[83-133] from ATDC5 cells. How it is done:
(SEQ ID NO: 41) for 90 min at 4° C. After incubation, cells were washed twice with ice-cold PBS and solubilized with 0.5-ml of 0.5 M NaOH.
The radioactivity was measured with gamma-counter (Wallac). […] (SEQ ID NO: 41) and the IC₅₀ calculated was 4.7 nM. […] (SEQ ID NO: 41) (FIG. 12b).
Background: Loss of bound radioactivity is the signal in a displacement assay; it reports binding, not function.

Test [4] has as its target T3, endogenous GC-A of HEK293 cells (human, UniProt P16066 33-1061).
T3 sequence (looked up): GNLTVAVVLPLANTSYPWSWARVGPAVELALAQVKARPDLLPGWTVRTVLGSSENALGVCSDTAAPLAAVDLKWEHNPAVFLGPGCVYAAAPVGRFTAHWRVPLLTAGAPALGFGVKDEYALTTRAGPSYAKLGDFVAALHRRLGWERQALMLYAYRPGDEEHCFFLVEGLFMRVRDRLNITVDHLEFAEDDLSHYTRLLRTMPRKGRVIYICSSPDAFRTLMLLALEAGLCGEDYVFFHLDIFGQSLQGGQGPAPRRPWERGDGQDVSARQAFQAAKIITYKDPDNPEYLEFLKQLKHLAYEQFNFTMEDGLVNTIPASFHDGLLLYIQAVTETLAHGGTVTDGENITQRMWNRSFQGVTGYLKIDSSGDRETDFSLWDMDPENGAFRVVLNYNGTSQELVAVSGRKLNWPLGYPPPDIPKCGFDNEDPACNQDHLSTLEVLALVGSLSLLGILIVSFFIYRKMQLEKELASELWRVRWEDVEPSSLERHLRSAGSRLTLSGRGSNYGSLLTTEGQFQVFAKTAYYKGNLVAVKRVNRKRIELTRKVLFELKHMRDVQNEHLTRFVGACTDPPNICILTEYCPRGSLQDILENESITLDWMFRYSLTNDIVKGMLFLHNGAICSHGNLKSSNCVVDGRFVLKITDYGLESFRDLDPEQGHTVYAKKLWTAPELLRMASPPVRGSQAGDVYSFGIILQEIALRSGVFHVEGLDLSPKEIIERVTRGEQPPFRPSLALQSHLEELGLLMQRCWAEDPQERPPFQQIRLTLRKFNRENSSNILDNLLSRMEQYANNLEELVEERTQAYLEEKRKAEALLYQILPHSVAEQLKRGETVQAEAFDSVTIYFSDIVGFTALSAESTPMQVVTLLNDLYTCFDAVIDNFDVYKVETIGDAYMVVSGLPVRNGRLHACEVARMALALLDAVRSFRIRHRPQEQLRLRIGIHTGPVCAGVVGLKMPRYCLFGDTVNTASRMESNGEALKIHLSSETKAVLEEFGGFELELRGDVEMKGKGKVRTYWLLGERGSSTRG
As to the kind of experiment: cell-based or functional assay.

The target of test [5] is T4, human GC-B, overexpressed on HEK293 cells (human, UniProt P20594 23-1047).
T4 construct: whole, on cells
T4 sequence (looked up): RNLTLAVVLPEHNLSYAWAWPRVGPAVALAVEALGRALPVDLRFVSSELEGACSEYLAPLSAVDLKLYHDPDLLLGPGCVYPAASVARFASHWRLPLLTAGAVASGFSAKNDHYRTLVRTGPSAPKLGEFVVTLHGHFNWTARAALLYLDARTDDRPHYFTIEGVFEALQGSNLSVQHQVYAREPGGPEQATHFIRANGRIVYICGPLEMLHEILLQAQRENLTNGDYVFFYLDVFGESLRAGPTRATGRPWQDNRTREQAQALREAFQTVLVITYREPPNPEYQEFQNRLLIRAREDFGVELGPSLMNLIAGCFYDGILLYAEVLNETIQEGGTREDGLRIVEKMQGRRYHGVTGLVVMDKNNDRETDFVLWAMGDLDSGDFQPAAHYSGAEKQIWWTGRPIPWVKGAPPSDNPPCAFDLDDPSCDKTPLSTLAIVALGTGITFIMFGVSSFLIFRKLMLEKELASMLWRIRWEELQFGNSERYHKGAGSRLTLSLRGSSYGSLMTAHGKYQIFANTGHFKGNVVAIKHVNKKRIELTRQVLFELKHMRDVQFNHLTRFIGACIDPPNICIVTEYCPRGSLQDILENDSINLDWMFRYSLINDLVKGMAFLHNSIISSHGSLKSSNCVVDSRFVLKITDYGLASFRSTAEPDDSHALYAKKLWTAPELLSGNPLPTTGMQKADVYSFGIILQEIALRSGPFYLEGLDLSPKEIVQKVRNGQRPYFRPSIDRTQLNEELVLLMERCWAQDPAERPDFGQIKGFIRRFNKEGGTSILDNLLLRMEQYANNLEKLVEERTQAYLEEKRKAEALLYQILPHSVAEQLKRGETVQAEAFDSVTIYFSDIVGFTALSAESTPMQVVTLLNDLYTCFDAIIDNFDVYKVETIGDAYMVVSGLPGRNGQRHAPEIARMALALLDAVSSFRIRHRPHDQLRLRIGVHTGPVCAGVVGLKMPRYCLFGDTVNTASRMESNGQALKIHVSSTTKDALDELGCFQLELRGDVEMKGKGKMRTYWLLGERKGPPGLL
Kind of test: PLAP activity bound to transiently transfected HEK293 cells. An excerpt: (§1) To analyze the potential binding of Ostn to natriuretic receptors, a fusion protein (PLAP-Ostn) (FIG. 6) was generated as described above. This fusion protein comprised an N-terminal secreted placental alkaline phosphatase (PLAP) moiety linked to mature mouse Ostn (residues 29-130) (SEQ ID NO: 62). Conditioned media containing PLAP-mOstn was used to assess Ostn binding on transiently transfected cells.

The target in test [6] is T5, rat GC-A, overexpressed on HEK293 cells (rat, UniProt P18910 29-1057).
T5 construct: whole, on cells
T5 sequence (looked up): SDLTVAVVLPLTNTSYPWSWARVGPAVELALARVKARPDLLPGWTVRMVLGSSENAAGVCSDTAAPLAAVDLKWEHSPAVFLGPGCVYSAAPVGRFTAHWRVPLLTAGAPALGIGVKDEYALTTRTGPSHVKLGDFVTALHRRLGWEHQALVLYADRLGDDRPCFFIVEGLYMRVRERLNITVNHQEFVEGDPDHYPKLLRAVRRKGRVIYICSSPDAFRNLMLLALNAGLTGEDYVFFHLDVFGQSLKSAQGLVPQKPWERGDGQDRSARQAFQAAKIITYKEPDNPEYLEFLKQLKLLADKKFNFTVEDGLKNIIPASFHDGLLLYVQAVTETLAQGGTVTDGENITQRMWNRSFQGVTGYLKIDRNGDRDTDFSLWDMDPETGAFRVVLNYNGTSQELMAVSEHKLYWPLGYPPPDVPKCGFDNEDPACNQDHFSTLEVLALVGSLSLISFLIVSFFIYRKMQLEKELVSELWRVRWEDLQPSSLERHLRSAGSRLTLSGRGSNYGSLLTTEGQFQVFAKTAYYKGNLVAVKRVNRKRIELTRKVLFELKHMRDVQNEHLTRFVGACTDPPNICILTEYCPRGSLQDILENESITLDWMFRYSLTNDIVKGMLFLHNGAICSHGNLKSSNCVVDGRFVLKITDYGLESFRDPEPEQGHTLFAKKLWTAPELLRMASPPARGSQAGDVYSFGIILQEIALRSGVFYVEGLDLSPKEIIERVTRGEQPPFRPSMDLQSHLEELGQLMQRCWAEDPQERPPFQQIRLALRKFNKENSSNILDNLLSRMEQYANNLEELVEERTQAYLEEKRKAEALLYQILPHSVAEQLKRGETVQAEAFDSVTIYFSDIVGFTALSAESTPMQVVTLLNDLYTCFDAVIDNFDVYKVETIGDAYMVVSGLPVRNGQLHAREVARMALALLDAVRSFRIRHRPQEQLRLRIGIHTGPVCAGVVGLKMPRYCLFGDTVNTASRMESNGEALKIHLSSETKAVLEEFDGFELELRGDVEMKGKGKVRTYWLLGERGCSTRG
The test is described as above.
Text: as §1

In test [7] the target is T1, human NPR-C (natriuretic peptide …). As to the kind of experiment: PLAP activity bound to NPR-C-transfected HEK293 cells, saturation binding.
Text: as §1

No end group written: not given here.

For orientation: IC50 means the midpoint of a concentration-inhibition curve. A lower IC50 goes with higher potency. As for YDHSKKRFGIPMDRIGRNRLSNSR-NH2 [mouse amidated Ostn[107-129] synthetic C-terminal peptide], the “cGMP levels of NPR-C-expressing HEK293 cells with 0.1 nM ANP and 10 nM Ostn[107-129]” value in test [1] amounted to 4 fold. In test [2], this molecule yielded an IC50 of 1 to 10 nM.

B1: human Ostn[83-133] (cold) (peptide)
peptide: SFSGFGSPLDRLSAGSVDHKGKQRKVVDHPKRRFGIPMDRIGRNRLSNSRG
notes: Bought from Phoenix Pharmaceutical co
Turning to B1, the half-inhibitory concentration (IC50) in test [3] turned out to be 4.7 nM.

With SLRRSSCFGGRIDRIGAQSGLGCNSFRY (ligand, ends and bridges not checked; cysteine pairing not given here) [Rat ANP (1-28)], in test [4], the “increase in cGMP levels upon ANP stimulation of GFP-transfected HEK293 cells” value was determined as 9 fold. Besides, the “increase in cGMP levels upon stimulation of NPR-C-overexpressing HEK293 cells with 0.1 nM ANP[1-28]” value in test [1] amounted to 1.5 fold.

B2: PLAP-Ostn fusion protein (N-terminal secreted placental alkaline phosphatase moiety linked to mouse Ostn[29-130]) (other)
chain: DAAQPARRARRTYEAYVRSSGIIPVEEENPDFWNREAAEALGAAKKLQPAQTAAKNLIIFLGDGMGVSTVTAARILKGQKKDKLGPEIPLAMDRFPYVALSKTYNVDKHVPDSGATATAYLCGVKGNFQTIGLSAAARFNQCNTTRGNEVISVMNRAKKAGKSVGVVTTTRVQHASPAGTYAHTVNRNWYSDADVPASARQEGCQDIATQLISNMDIDVILGGGRKYMFPMGTPDPEYPDDYSQGGTRLDGKNLVQEWLAKRQGARYVWNRTELMQASLDPSVTHLMGLFEPGDMKYEIHRDSTLDPSLMEMTEAALRLLSRNPRGFFLFVEGGRIDHGHHESRAYRALTETIMFDDAIERAGQLTSEEDTLSLVTADHSHVFSFGGYPLRGSSIFGLAPGKARDRKAYTVLLYGNGPGYVLKDGARPDVTESESGSPEYRQQSAVPLDEETHAGEDVAVFARGPQAHLVHGVQEQTFIAHVMAFAACLEPYTACDLAPPAGTTDAAHPGYLDLASQEFGTASLQSPPTAREEKSATELSAKLLRLDDLVSLENDVFETKKKRSFSGFGSPLDRLSAGSVEHRGKQRKAVDHSKKRFGIPMDRIGRNRLSSSRG
notes: Used as conditioned medium of transfected HEK293 cells; also called PLAP-mOstn
A word on the EC50: it is the concentration that produces a half-maximal response. Low readings indicate greater potency, high ones weaker potency. For the molecule B2, the binding result in test [5] and in test [6] was “no binding” in each case. In test [7], this molecule gave a concentration giving a half-maximal response (EC50) of approximately 30 nM.
